Results on 9 sequences are retold here after a protein production outcome set (Wang et al. 2014).

The data set is described as follows: label from the status in PepcDB records.
For the sequence “MEQHIGELIAHYGYFGIVIALAGGIVGLPIPDEFLLTFVGYNVSKGVMSGTAAFLSGLAGAMLGITLSYILGLKLGLPVLKKYGPKIRIKEHHIEKTHILFEKYGPFLLMIGYFIPGVRHLTAYFAGVSNLTLWRFCLYAYGGALIWISVFIGLGWKLGEKWRFVEYSLHHYGIWILLISAVVTCFVWLYIKKKKNR”, the protein production entry is on record as “failed”.
In the case of “MEQIITDFISKWGYTAIFILILLENVLPVVPSEIILTFAGLLSVKSHLSIWTLLIIATIASFIGLLILYYICRLISEEKLYRFVDRHGKWMKLKSKDLKRANDWFKKYGAWAVFLCRFVPVLRVLITIPAGINRMNVIQFTTLSLIGTTIWNFALILLGRLLSDSFDALMNGIHTYSRIMYVIIIIAVIYFVIRYLMKRRRSVK” it was “failed”.
For “MEQLQIGDIKVTWLKGGNTHLDGGAMFGVVPKVLWSRKYKHNDTNHIYLRTDPLLLQTKDGNMLIDSGIGNGKLNEKMKRNQGVTEESSVYESLEKLGLKPEDIDYVLMTHLHFDHASGLTKWEDDHLVPSFPNAKVYVSETEWNEMRNPNIRSRNTYWKENWEPIVDQVVTFQQEIEITDEIKMARTGGHSDGHAVIALESQGETMLHLADLLPTHAHQNVLWVMAYDDYPMTSIENKQKWMKYGAEKEAWFTFYHDAYYRAVKWNEEGHIVEKIERKTSIEA” the value was “failed”.
For “MEQQRSFQTETGGHLYLVPTPIGNLDDMTFRAVKTLTAVDLIAAEDTRNTQKLLNHFEITTKQISFHEHNTQERIPQLIAKLKQGMQIAQVSDAGMPSISDPGHELVNACIDAHIPVVPLPGANAGLTALIASGLAPQPFYFYGFLDRKPKDRKAEIAGLAQRPETLIFYEAPHRLKKTLQNLAAGFGDERPAVLCRELTKRYEEFLRGSLAELANWAATDTVRGEFVVLVGGNPAPTTAATTAVDLSEPIDVQVDRLIAAGEKPNDAIKEVAKLRGAKKQEIYRQYHHLDEE” the value was “not failed”; for “MERAMEQLNRLTRSLRRARTVELPEDNETAVYTLMPMVMADQHRSVSELLSNSKFDVNYAFGRVKRSLLHIAANCGSVECLVLLLKKGANPNYQDISGCTPLHLAARNGQKKCMSKLLEYSADVNICNNEGLTAIHWLAVNGRTELLHDLVQHVTDVDVEDAMGQTALHVACQNGHKTTVQCLLDSGADINRPNVAGATPLYFACSHGQRDTAQILLLRGAKYLPDKNGVTPLDLCVQGGYGQTCEVLIQYHPRLFQTIVQMTQNEDLRENMLRQVLQHLSQQSESQYLKILTGLAEVATTNGHKLLSLSSSYEAQMKSLLRIVRIFCHVFRIGPSSPSNGMDMGYNGNKTPRSQVFKPLELLWHSLDEWLVLIATELMKNKEDSADITSILLKQKGQDQEASCISAFEPPGPGSYERLSTGPGESKPDVLAGKQEASADCQDVISVTANRLSAVIQAFYMCCSCQMPPGMTSPRFIEFVCKHDEVLKCFVNRNPKIIFDHFHFLLECPELMSRFMHIIKAQPFKDRCEWFYEHLHSGQPDSDMVHRPVSENDILLVHRDSIFRSSCEIVSKANCAKLKQGIAVRFHGEEGMGQGVVREWFDILSNEIVNPDYALFTQSYCYVFISIGTTFQPNSNSYVNPDHLNYFRFAGQILGLALNHRQLVNIYFTRSFYKHILGIPVNYQDVASIDPEYAKNLQWILDNDISDLGLELTFSVETDVFGAMEEVPLKPGGGSILVTQNNKAEYVQLVTELRMTRAIQPQINAFLQGFHMFIPPSLIQLFDEYELELLLSGMPEIDVNDWIKNTEYTSGYEREDPVIQWFWEVVEDMTQEERVLLLQFVTGSSRVPHGGFANIMGGSGLQNFTIAAVPYTPNLLPTSSTCINMLKLPEYPSKEILKDRLLVALHCGSYGYTMA”, “failed”; for “MERDLAGRIVALVSPTGLRTSYSYDACGRMVDVTDPAGRVTRYSYTSDFQVATVTYPTGETARYEYDAMGRVVLSHVPGAGVSQYRYDPCGRLVFSCDLVYGQRHFSYDLAGQLVAATNPAGGVSRYGYDRCGRLVTRTDPGGGLTTYQYNECGQMIAATDPLGRVTEYTWDKSGTLAAITRPDGTVVSRRLGPKGVEEYIDDQLVSRILITPTTRTVTIDDYTDPAFPWRHLLGYDPRGLLLTHSVAPVPGDESIVDEGPLTSSEQWWYDAEGRRVRHLTLTGDSIDYAYTNTGVLGSIRHSRLGEVSLEWDAVGRLAKLGSPLDQQQWGYTDGFVTSHTSSRGSTTISRDEMGRVLRVSAPYGDFRYGYDDSGSLTSADGLDGSSRRWVYDTAGRLVTTTCQDAGTSQTCHYDYDLAGELVSTVTQLGPGDSTVETHYRYDPCGRRIEAASSAGMREEFRWDSRGWLAGVMTFRAGRSHEFATHVDAFGCLTDVSGPAGRTPIAWDLATGEPQLVQVGGIPALPLPDGSVLTPVSADSDQDEPWRRPATDPLDPYTLIQEHLTAGISMTGGHLGVAGLAWMGARVYDSTTASFLTIDPLAAPPGSLWEAASYGYAATNPLALADPLGLRPVTDAQMRQFASTIDTRNLWDRHIRNVFSWETLGGVALATAGGLLMCFGAEVPGAMLIGAGGDMVFQQVVRGHVDYGEVALSGALAPTGGSGLSEIAGLGTRTLLTRGIEAGTTQGYVMGNYHWVTSPGPHNAETYLEQVGGETLSGAAFGGITATIGGKTYDALPDSIPTGHFGPHNTILRVGKQPETFIRKYQRNGKLDFGQATSFRGATFKSKIAIKPITTYRSWSDPDYEVGGYVSRTRPAGPLQTQLDLALAPQWGNKANHISEYEIPQFAPFYEGAAGVQPVKAIEDSDTLGQLPGGGNQILITDKQVLDRWKSKK”, “failed”.
With “MERDQHIRIIYKLIIVLLVLLIIYVVVQLADLWVPFVYVLKRLLIPLGLAAIITYLFHPLIEAMHRRGMGRGLAVLLVFGAMIALLVCFAVVGAPYVLQQIEELTTSFPTVMKDVEGTVSKMEWQIQQLPHPFHNQAENWLNHLGKKAGNLLGQMERVIVVLIQSMVLLITVPFLVLYFLKDFDLIERAAWYVTPRKWRPSLKRYVRDVDRSFGRYIRGQLLVALSVAVVSMMALWLIGVPYPILLGGFIGATNIIPYFGAFIGAVPALVFAYFESWPVLLATAIALFLLQQLEGNVLSPLIVGHSLHLHPITIILALLVGVEVGGVIGLILAVPILAVLKVTFIHLRLHVSKVDREV”, the protein production result was “failed”.
For “MERFNMKLTRKKFTGNLLRSLAVLLLFSLVVCTAAGEELYFEPQEAVFSDTGSVASLSLYLDQAPSGLAGYKLNLSISDPSVAQITGVEFPSWSGINNSSSLPADLVQIKAVDLEEKINAGDLDVFLGTVTVESLASGEANLTVSVDRLDDDSENTISVTVREAKLTSGTTSENPVVSILPAESTLSSGASQVFEIRADKFTEGISGYDFNLTLENPAVGKFTNVEYPSWVGLSENSSMPNTSIKVKAVDTNDVVKAGDENVLLANVTFVAETPGESEISLTFNRLDDDSGSNINAVAEASSVKVQGSSTLPVAKFTATPTSGDSPLTVQFTDESTGSPTAWTWDFGDGATATEQSPSHTYTSAGNYTVNLTVTNDGGSDSEVKTDYITVSESSTPTEPEPVAAFTADVTNGTVPLTVNFTDQSTEAPTSWAWDFDNDGTVDSTEQNPSYTYTSAGTYTVNLTVANAEGSDSEVKIDYITVSESSTPTEPEPVAAFIADVTNGTVPLTVNFTDQSTGSPTSWLWDFGDNTSATEQNPSHTYNSAGNYTVNLTVISESGNSSEVKADYITVSESSTPTEPEPVAAFTADVTNGTVPLTVNFTDQSTGMPTSWAWDFDNDGNMDSTEQNPSYTYTAEGNYTVNLTVSSEVGSDSEVKVEYITVTDSSTTPEARPDLIVSSIIPPSSITANTSCNIGATISNTGESDAGTFNATLSVNGAVVDTHAVSGIVSGSSATVNFSWKPVAAGYYSVKVSADAGNVIAESDETNNELADCIKVEEASSGSQSQNGSSSVSLNVTIVPVVCFEVSPSALKFGELSAGQTSEPQLLTLKNCGVSGIKVTAEVSDSSAEDNLFGLGLLLDSQIWSDYCNVIGSNSQENATAALHVPSDYTGTGNKKGTITFWAEVAE” the value was “failed”.
For the sequence “MERIALPRRTLGARRREVPVTPDTLLPLLAVLPPLAYGLLALFCARAWFGRQRPGPGHTPPVTILKPVKGMDAESFENFASFCRQEYGGPWQMLFACASADDPVIPVIRRLMAEFPDRDIDLVVDGTIHGPNYKVSNLINAFPRARHDILIVCDSDIRVTSDYLGEVTAPFADPAVGLVTSLYRSPGVRGAATALEAMGFTVEMVPNVMVAQRLEGLSFALGASMAVRRTALESIGGFPALTHYLADDYQLGNKIHRAGWRLELSDCFVESVMHRENLTTVLSRQLRWCRTMRASRPGGYLGSGITQPVPLACLALLVSGCSAAGWGAVILLYLTRALVAVTFSRRYLRDGIFPRWLWLLPLRDILAFATWALSFAGNRVRWRGNLFRLLPGGKIVEIG”, the protein production result was “failed”.
